# Test results published in patent US20180186871A1 (SINGAPORE HEALTH SERVICES PTE, published 2018).
# Where a chain is given by its changes, count along the chain named.
# T1: human IL-11 (human, UniProt P20809 22-199)
# T1 sequence (looked up): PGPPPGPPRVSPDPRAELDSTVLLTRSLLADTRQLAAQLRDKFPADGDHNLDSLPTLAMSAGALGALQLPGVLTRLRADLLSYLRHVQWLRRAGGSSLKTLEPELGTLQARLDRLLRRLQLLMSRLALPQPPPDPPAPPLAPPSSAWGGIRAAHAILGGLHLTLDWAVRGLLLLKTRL
# B1: YU100-E11 (scFv)
# scFv: QVQLVESGGGVVQPGRSLRLSCAASGFTFSSYGMHWVRQAPGKGLEWVAVISYDGSNKYYADSVKGRFTISRDNSKNTLYLQMNSLRAEDTAVYYCARIMGYDYGDYDVVDYWGQGTLVTVSSGSASAPKLEEGEFSEARVQSALTQPRSVSGSPGQSVTISCTGTSSDVGGYNYVSWYQQHPGKAPKLMIYDVSKRPSGVPDRFSGSKSGNTASLTISGLQAEDEADYYCCSYAGSYTWVFGGGTKLTVL
# B2: YU100-H06 (scFv, not shown: a dimerising Fc or GST)
# scFv: QVQLVESGGGVVQPGRSLRLSCAASGFTFSSYGMHWVRQAPGKGLEWVAVISYDGSNKYYADSVKGRFTISRDNSKNTLYLQMNSLRAEDTAVYYCAKIGATDPLDYWGQGTLVTVSSGSASAPKLEEGEFSEARIQSALTQPRSVSGSPGQSVTISCTGTSSDVGGYNYVSWYQQHPGKAPKLMIYDVTKRPSGVPDRFSGSKSGNTASLTISGLQAEDEADYYCSSYAGSYTWVFGGGTKLTVL
# B3: YU112-D08 (scFv)
# scFv: B2 scFv with K65E, I136V, S162I, D223G, K242E
# B4: YU100-B07 (scFv)
# scFv: B2 scFv with I136V, I156M, S163R, Q176H, T190S, G215E, S227C
# B5: YU100-A12 (scFv)
# scFv: B2 scFv with I136V, Q137L, S138P, A139V, T190S, N207D
# B6: YU100-B01 (scFv)
# scFv: B2 scFv with E6Q, I136V, S162N, S163T, G167A, H177Y, M185I, T190S, S227C, T234S
# B7: YU112-G06 (scFv)
# scFv: B2 scFv with V5Q, I136V, S162I, P193R, D223G, S232G, K242E
# B8: YU112-B06 (scFv, not shown: a dimerising Fc or GST)
# scFv: QVQLVESGGGVVQPGRSLRLSCAASGFTFSSYGMHWVRQAPGKGLEWVAVISYDGSNKYYADSVKGRFTISRDNSKNTLYLQMNSLRAEDTAVYYCAKIGATDPLDYWGQGTLVTVSSGSASAPKLEEGEFSEARVQSALTQPASVSGSPGQSITISCTGTSSDVGGYNYVSWYQQHPGKAPKLMIYDVSNRPSGVSNRFSGSKSGNTASLTIFGLQAEDEADYYCSSYTSSSSWVFGGGTKLTVL
# B9: YU112-A07 (scFv, not shown: a dimerising Fc or GST)
# scFv: B2 scFv with A61T, I136V, S162I, D223G, K242E
# B10: YU100-A11 (scFv)
# scFv: B2 scFv with Q1E, V5Q, E6Q, I136V, T190S, S227C
# B11: YU100-E07 (scFv)
# scFv: B2 scFv with V5Q, K58R, T69A, I136V, N169D, K183E, P197A, S227C, S232R
# B12: YU100-G01 (scFv)
# scFv: B2 scFv with E6Q, I136V, G148A, G167A, I186L, T190N, G215R, S227C
# B13: YU100-B03 (scFv)
# scFv: QVQLVQSGGGVVQPGRSLRLSCAASGFTFSSYGMHWVRQAPGKGLEWVAVISYDGSNKYYADSVKGRFTISRDNSKNTLYLQMNSLRAEDTAVYYCAKIGATDPLDYWGQGTLVTVSSGSASAPKLEEGEFSEARVQSVLTQPRSVSGSPGRSVTISCTGTSSDVGGYNYVSWYQQHPGKAPKLTLYDVVKRPSGVPDRYSGSKSGNTASLTISGLQAEDEADYYCCSYAGGYTWVFGGGTKVTVV
# B14: YU100-G09 (scFv)
# scFv: B2 scFv with Q1E, I136V, S162I, D223G
# B15: YU100-F02 (scFv)
# scFv: B2 scFv with Q1E, I136V, E219D, S227C, V236I
# B16: YU100-H05 (scFv)
# scFv: B2 scFv with I136V, S138A, A139V, V154I, S162G, D164N, K180Q, T190S, S227C, S232T
# B17: YU100-E10 (scFv)
# scFv: B2 scFv with E6Q, I136V, Y187F, T190S, K191Q, G202A, S227C
# B18: YU100-B06 (scFv)
# scFv: B2 scFv with G66S, I136V, R144A, V154I, T190S, S227N
# B19: YU100-H11 (scFv, not shown: a dimerising Fc or GST)
# scFv: B8 scFv with E6Q, F214S, S227C, T230A, S231G, S233Y, S234T
# B20: YU100-E12 (scFv)
# scFv: B8 scFv with K180T, F214S, S233T, S234T
# Biological target: T1, human IL-11
# Test: cell-based or functional assay
# Further: test concentration or dose not given here.
"MMP2 production (ng/ml), TGFB1-stimulated human atrial fibroblasts, Experiment 1 (NEG 42.7, POS 70.2) [ng/mL]","MMP2 production (ng/ml), TGFB1-stimulated human atrial fibroblasts, Experiment 2 (NEG 36.2, POS 62.3) [ng/mL]",Binder
49.1,41.9,B1
52.3,43.9,B2
50.3,42.5,B3
55.9,47.4,B4
59.5,50.4,B5
52.5,40,B6
55,47.8,B7
49.7,43.9,B8
50.7,45,B9
51.6,45.7,B10
52.1,46.5,B11
56.6,49.7,B12
47.3,46.8,B13
59.9,47.5,B14
51.2,43.5,B15
57.1,47.8,B16
56.1,47,B17
47.6,49.6,B18
53.7,45.5,B19
56,47.9,B20
